According to paper PMC11897886 (Nucleic Acids Research, 2024):

T1: CBP-Upf1-HD (S. cerevisiae, UniProt P30771 221-851)
T1 sequence: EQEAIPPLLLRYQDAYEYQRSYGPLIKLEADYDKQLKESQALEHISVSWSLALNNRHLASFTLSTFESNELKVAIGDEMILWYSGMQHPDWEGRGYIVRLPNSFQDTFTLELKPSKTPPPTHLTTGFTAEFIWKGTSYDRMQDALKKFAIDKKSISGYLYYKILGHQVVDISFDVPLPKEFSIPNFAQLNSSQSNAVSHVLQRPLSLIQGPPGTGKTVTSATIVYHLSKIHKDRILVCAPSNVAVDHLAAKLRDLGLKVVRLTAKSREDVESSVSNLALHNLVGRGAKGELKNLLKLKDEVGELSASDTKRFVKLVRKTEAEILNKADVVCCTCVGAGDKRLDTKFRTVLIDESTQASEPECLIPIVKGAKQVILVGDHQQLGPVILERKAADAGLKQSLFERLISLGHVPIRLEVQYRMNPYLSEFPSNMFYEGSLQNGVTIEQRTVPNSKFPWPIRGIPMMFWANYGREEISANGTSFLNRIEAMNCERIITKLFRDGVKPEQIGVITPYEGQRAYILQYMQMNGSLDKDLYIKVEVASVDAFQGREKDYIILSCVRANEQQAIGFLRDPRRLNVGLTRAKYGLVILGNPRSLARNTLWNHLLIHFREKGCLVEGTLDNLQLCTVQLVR

T2: CBP-Upf1-CH-HD (S. cerevisiae, UniProt P30771 54-851)
T2 sequence: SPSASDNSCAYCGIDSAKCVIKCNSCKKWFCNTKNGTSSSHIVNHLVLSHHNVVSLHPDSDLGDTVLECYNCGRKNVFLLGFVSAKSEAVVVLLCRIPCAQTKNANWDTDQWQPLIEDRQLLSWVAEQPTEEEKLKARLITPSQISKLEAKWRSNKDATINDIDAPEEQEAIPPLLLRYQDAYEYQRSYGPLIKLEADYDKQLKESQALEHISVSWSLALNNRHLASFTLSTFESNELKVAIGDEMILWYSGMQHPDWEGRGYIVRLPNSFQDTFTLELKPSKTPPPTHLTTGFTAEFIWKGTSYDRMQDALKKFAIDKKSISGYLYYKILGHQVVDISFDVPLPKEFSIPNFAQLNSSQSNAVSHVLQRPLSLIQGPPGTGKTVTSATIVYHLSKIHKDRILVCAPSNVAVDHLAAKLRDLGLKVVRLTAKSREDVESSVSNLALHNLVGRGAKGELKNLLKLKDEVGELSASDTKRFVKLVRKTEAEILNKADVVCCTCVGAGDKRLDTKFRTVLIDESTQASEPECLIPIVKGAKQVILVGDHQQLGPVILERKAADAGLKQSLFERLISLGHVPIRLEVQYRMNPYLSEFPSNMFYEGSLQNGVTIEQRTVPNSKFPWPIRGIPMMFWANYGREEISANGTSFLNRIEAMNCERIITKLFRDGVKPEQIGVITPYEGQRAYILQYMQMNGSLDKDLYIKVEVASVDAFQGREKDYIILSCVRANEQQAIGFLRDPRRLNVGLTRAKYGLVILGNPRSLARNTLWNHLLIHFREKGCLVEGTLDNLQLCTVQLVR

T3: CBP-Upf1-FL (S.c. Upf1 full-length) (S. cerevisiae, UniProt P30771 1-971)
T3 sequence: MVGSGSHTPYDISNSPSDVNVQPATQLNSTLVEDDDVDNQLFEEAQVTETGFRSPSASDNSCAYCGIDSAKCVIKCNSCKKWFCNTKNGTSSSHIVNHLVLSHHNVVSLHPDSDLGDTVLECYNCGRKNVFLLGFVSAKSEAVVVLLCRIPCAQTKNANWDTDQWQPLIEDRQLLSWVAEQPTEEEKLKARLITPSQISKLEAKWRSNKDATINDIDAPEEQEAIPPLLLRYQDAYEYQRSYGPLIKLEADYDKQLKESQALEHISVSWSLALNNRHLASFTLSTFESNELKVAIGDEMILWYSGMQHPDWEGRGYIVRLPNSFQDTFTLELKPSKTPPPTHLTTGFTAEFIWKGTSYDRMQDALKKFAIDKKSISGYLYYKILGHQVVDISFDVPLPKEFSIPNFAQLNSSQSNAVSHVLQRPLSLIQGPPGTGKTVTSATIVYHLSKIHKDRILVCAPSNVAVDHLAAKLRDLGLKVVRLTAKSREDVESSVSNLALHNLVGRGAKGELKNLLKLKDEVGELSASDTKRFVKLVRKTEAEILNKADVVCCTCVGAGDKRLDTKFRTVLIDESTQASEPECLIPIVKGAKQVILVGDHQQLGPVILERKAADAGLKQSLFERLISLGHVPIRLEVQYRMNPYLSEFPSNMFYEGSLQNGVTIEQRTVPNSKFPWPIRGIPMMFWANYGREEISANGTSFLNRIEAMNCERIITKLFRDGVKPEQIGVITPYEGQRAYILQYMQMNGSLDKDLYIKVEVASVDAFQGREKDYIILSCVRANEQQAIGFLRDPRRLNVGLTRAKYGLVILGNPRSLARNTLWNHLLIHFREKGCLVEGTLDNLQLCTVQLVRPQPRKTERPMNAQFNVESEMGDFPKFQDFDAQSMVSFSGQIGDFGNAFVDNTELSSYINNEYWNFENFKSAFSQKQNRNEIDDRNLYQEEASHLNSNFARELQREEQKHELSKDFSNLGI

T4: CBP-Upf1-HD-Ct (S. cerevisiae, UniProt P30771 221-971)
T4 sequence: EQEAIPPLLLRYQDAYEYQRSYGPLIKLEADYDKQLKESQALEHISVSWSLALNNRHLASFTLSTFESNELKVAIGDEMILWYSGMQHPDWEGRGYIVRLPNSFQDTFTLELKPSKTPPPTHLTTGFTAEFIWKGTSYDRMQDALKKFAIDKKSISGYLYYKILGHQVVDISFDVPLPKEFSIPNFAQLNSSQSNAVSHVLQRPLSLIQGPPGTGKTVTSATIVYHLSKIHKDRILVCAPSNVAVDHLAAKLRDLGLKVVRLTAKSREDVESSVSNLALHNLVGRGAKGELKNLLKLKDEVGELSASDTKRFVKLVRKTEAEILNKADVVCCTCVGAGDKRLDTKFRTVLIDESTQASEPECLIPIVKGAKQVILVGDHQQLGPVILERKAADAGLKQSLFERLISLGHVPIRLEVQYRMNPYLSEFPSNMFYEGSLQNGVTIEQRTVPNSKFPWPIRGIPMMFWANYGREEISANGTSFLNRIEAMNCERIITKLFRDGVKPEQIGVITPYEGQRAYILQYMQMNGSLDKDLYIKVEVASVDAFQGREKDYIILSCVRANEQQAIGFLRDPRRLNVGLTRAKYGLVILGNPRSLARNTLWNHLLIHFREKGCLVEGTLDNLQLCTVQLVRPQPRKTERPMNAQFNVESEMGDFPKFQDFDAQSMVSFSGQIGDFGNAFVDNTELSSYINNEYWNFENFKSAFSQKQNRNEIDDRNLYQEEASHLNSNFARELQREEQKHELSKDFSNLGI

B1: GST-tagged full-length Dcp1 (aa 1-231) (natural protein)
chain: MTGAATAAENSATQLEFYRKALNFNVIGRYDPKIKQLLFHTPHASLYKWDFKKDEWNKLEYQGVLAIYLRDVSQNTNLLPVSPQEVDIFDSQNGSNNIQVNNGSDNSNRNSSGNGNSYKSNDSLTYNCGKTLSGKDIYNYGLIILNRINPDNFSMGIVPNSVVNKRKVFNAEEDTLNPLECMGVEVKDELVIIKNLKHEVYGIWIHTVSDRQNIYELIKYLLENEPKDSFA
B2: GST-Dcp1/Dcp2-S heterodimer (complex)
chain 1: B1 chain
chain 2: MSLPLRHALENVTSVDRILEDLLVRFIINCPNEDLSSVERELFHFEEASWFYTDFIKLMNPTLPSLKIKSFAQLIIKLCPLVWKWDIRVDEALQQFSKYKKSIPVRGAAIFNENLSKILLVQGTESDSWSFPRGKISKDENDIDCCIREVKEEIGFDLTDYIDDNQFIERNIQGKNYKIFLISGVSEVFNFKPQVRNEIDKIEWFDFKKISKTMYKSNIKYYLINSMMRPLSMWLRHQRQIKNEDQLKSYAEEQLKLLLGITKEEQIDPGRELLNMLHTAVQANSNNNAVSNGQVPSSQELQHLKEQSGEHNQQK
B3: TS-Nmd4-His (full-length Nmd4, aa 1-218) (natural protein)
chain: MTQYNFIIDASAFEKGLGNIKRWCSDCTEAVTLNFYIPTFTLNELDFLQQRRKSFAARESLKFIDRLDDSKFANLKVFIEFPEVLDIILWSDVMEHNDSSGKINIAKLPKRLKNLLKSCIYKCYLEGNEGLHWFLISEDPQIREMAMQCNIPSCSIVDVDSILSKDMNDKSFRESEKFNNMMLKNGTKEESENGREIIRTNFNKTVYASRGTGELWSP
B4: GST-Dcp2-UBM (aa 434-720) (domain or fragment)
chain: GYSSSSPGQLLDILNSKKPDSNVQSSKKPKLKILQRGTDLNSIKQNNNDETAHSNSQALLDLLKKPTSSQKIHASKPDTSFLPNDSVSGIQDAEYEDFESSSDEEVETARDERNSLNVDIGVNVMPSEKDSRRSQKEKPRNDASKTNLNASAESNSVEWGPGKSSPSTQSKQNSSVGMQNKYRQEIHIGDSDAYEVFESSSDEEDGKKLEELEQTQDNSKLISQDILKENNFQDGEVPHRDMPTESNKSINETVGLSSTTNTVKKVPKVKILKRGETFASLANDKKA
B5: GST-Dcp2-UBM1 (aa 434-508) (domain or fragment)
chain: GYSSSSPGQLLDILNSKKPDSNVQSSKKPKLKILQRGTDLNSIKQNNNDETAHSNSQALLDLLKKPTSSQKIHAS
B6: GST-Dcp2-UBM2 (aa 687-720) (domain or fragment)
chain: VGLSSTTNTVKKVPKVKILKRGETFASLANDKKA
B7: GST-Ebs1 (aa 1-591) (domain or fragment)
chain: MEPSNTQKEDLPTAFNGIKSQLNSILKSNQLFQDYALLNGFLAFVHSKLNAAILTSIESQCGKSFAADLDSFDQSSISSILDFSWESVHYPIFKWFQMWRNYILFEKENKKQQTKFIDFRKMNSKMLKFFKTVQNFYVNVINTVYKKYDISVLLPKRIIQDLKLSDIENTTNVGDILAVKTFNSSSPLAHLIPTLFHRCLLFLGTAYRYKTLLEEISNKYSISNFKKSLDFFRLASLVLPSAGETYSQAGAIFLQTGNLGIAVFNFVKGMMTKMPSPVSIKNFGALMVDNKSSLNRSLHTTIMNTYLQESKGPRTPAKEILEFYFLGLFGSVWSPTSWRDDTKPNQLNNGIKLRHLENALYETMSARYLNNIKTIFHNLIITIGGFHLLLKRRSDVSAKTLKDLRSNELDYLNFAFKYIAHILNDIVKESWSENPEVSEILGMVRIINCWIKANPMVLQYSQSNLEFVNALAYLINDIVKKKPSPSFSITEHIPKRTYWFEEDLMVKGLSFVNFQLSDFDDYEKILEMDHSLDRLIGNPPLCDKLSASSEMLLRLQAVVNISSQLLQNNNCGVEWSDNKSRYIFNKKIGFK
B8: HisSUMO-tagged Ebs1 (aa 1-591) (domain or fragment)
chain: B7 chain

Molecular target: T1, CBP-Upf1-HD
Experiment: pull-down

Binder	binding result
B1	binds
B2	binds
B3	binds

Molecular target: T2, CBP-Upf1-CH-HD
Experiment: pull-down

Binder	binding result
B1	binds
B2	binds
B4	binds
B5	binds
B6	binds
B3	binds

Molecular target: T3, CBP-Upf1-FL (S.c. Upf1 full-length)
Experiment: pull-down

Binder	binding result
B1	binds
B2	binds
B4	binds
B5	binds
B6	binds
B3	binds
B7	binds
B8	binds

Molecular target: T4, CBP-Upf1-HD-Ct
Experiment: pull-down

Binder	binding result
B1	binds
B2	binds
B3	binds
